Results from article doi:10.1101/2021.04.14.439859.

Experiments:
Assay in all cases: fluorescence polarisation
TLH3 nucleosome (human) = TLH3 nucleosome (human) (UniProt P04908)
[1] = target: H2A-H2B (Alexa-488 H2B) (human) (UniProt P04908)
[2] = target: H3-H4 (Alexa-488 H4) (human) (UniProt P68431)
TLH4 nucleosome (human) = TLH4 nucleosome (human) (UniProt P04908)

SMARCAD1 (from UniProt Q9H4L7 1-1026) (enzyme)
Kd (TLH3 nucleosome (human)): 330 nM
Kd [1]: 10 nM
Kd [2]: 1.2 nM
Kd (TLH4 nucleosome (human)): 110 nM
